Source: the supplement of paper PMC9112550, “Optimization of the antimicrobial peptide Bac7 by deep mutational scanning” (BMC Biology, 2022)

What follows are sequences tested on Escherichia coli TOP10 (assay: shrunken log2 fold change of peptide-encoding DNA abundance (4.5 h post-induction vs induction); higher = less antimicrobial activity (less host growth inhibition)). Settings: time post-induction: 4.5 h; library: site-saturation at positions 5, 18, 19, 20.
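Note: peptides expressed intracellularly from a pBAD plasmid library in pooled LB shake-flask culture, induced with 0.3% L-arabinose, DNA abundance read by NGS, three biological replicates, DESeq2 with apeglm shrinkage.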

Row | Sequence | shrunken log2 fold change
1 | RRIRYRPPRLPRPRPRPRVQPRP | -0.617
2 | RRIRYRPPRLPRPRPRPSAAPRP | -0.222
3 | RRIRYRPPRLPRPRPRPSAQPRP | -0.17
4 | RRIRYRPPRLPRPRPRPSCDPRP | -0.74
5 | RRIRYRPPRLPRPRPRPSDDPRP | -0.917
6 | RRIRYRPPRLPRPRPRPSDVPRP | -0.199
7 | RRIRYRPPRLPRPRPRPSEQPRP | -0.0359
8 | RRIRYRPPRLPRPRPRPSFPPRP | -0.831
9 | RRIRYRPPRLPRPRPRPSFTPRP | -0.91
10 | RRIRYRPPRLPRPRPRPSFWPRP | -0.122
11 | RRIRYRPPRLPRPRPRPSGEPRP | -0.187
12 | RRIRYRPPRLPRPRPRPSHGPRP | -0.274
13 | RRIRYRPPRLPRPRPRPSIDPRP | -0.519
14 | RRIRYRPPRLPRPRPRPSISPRP | -0.601
15 | RRIRYRPPRLPRPRPRPSIYPRP | -1.09
16 | RRIRYRPPRLPRPRPRPSKHPRP | -0.786
17 | RRIRYRPPRLPRPRPRPSLPPRP | -0.546
18 | RRIRYRPPRLPRPRPRPSMTPRP | -0.817
19 | RRIRYRPPRLPRPRPRPSNRPRP | -0.134
20 | RRIRYRPPRLPRPRPRPSPYPRP | -0.709
21 | RRIRYRPPRLPRPRPRPSRQPRP | -0.114
22 | RRIRYRPPRLPRPRPRPSSHPRP | -2.24
23 | RRIRYRPPRLPRPRPRPSSYPRP | -0.955
24 | RRIRYRPPRLPRPRPRPSTRPRP | -0.367
25 | RRIRYRPPRLPRPRPRPSVAPRP | -0.183

Row | Sequence | shrunken log2 fold change
26 | RRIRYRPPRLPRPRPRPSVMPRP | -0.194
27 | RRIRYRPPRLPRPRPRPSVVPRP | -0.844
28 | RRIRYRPPRLPRPRPRPSWGPRP | -0.154
29 | RRIRYRPPRLPRPRPRPSWHPRP | -1.12
30 | RRIRYRPPRLPRPRPRPSWVPRP | -0.597
31 | RRIRYRPPRLPRPRPRPSYCPRP | -0.407
32 | RRIRYRPPRLPRPRPRPSYEPRP | -0.629
33 | RRIRYRPPRLPRPRPRPSYGPRP | -0.383
34 | RRIRYRPPRLPRPRPRPSYYPRP | -1.66
35 | RRIRYRPPRLPRPRPRPTAEPRP | 0.0226
36 | RRIRYRPPRLPRPRPRPTAFPRP | 0.0438
37 | RRIRYRPPRLPRPRPRPTCKPRP | -0.178
38 | RRIRYRPPRLPRPRPRPTCNPRP | -0.351
39 | RRIRYRPPRLPRPRPRPTDIPRP | -0.031
40 | RRIRYRPPRLPRPRPRPTDNPRP | -1.05
41 | RRIRYRPPRLPRPRPRPTDRPRP | -0.144
42 | RRIRYRPPRLPRPRPRPTEPPRP | -0.131
43 | RRIRYRPPRLPRPRPRPTEQPRP | -0.0161
44 | RRIRYRPPRLPRPRPRPTHCPRP | 0.0602
45 | RRIRYRPPRLPRPRPRPTIDPRP | -0.271
46 | RRIRYRPPRLPRPRPRPTIEPRP | -0.391
47 | RRIRYRPPRLPRPRPRPTISPRP | -0.893
48 | RRIRYRPPRLPRPRPRPTLPPRP | -0.135
49 | RRIRYRPPRLPRPRPRPTMWPRP | 0.0172
50 | RRIRYRPPRLPRPRPRPTNFPRP | -0.16

Row | Sequence | shrunken log2 fold change
51 | RRIRYRPPRLPRPRPRPTQYPRP | -0.531
52 | RRIRYRPPRLPRPRPRPTSIPRP | -0.656
53 | RRIRYRPPRLPRPRPRPTSRPRP | -0.0257
54 | RRIRYRPPRLPRPRPRPTYEPRP | 4.06
55 | RRIRYRPPRLPRPRPRPTYVPRP | -0.0567
56 | RRIRYRPPRLPRPRPRPTYWPRP | -0.318
57 | RRIRYRPPRLPRPRPRPVADPRP | -0.127
58 | RRIRYRPPRLPRPRPRPVAIPRP | -0.702
59 | RRIRYRPPRLPRPRPRPVDIPRP | -0.00973
60 | RRIRYRPPRLPRPRPRPVDNPRP | -0.0156
61 | RRIRYRPPRLPRPRPRPVFRPRP | -0.258
62 | RRIRYRPPRLPRPRPRPVFSPRP | -0.303
63 | RRIRYRPPRLPRPRPRPVGPPRP | -0.328
64 | RRIRYRPPRLPRPRPRPVGTPRP | 0.238
65 | RRIRYRPPRLPRPRPRPVITPRP | -0.241
66 | RRIRYRPPRLPRPRPRPVKNPRP | -0.381
67 | RRIRYRPPRLPRPRPRPVLAPRP | -0.037
68 | RRIRYRPPRLPRPRPRPVLSPRP | -0.311
69 | RRIRYRPPRLPRPRPRPVLYPRP | -0.0955
70 | RRIRYRPPRLPRPRPRPVMIPRP | -0.596
71 | RRIRYRPPRLPRPRPRPVMMPRP | -0.891
72 | RRIRYRPPRLPRPRPRPVNEPRP | -0.109
73 | RRIRYRPPRLPRPRPRPVPHPRP | -0.262
74 | RRIRYRPPRLPRPRPRPVPLPRP | -0.17
75 | RRIRYRPPRLPRPRPRPVRAPRP | 0.774

Row | Sequence | shrunken log2 fold change
76 | RRIRYRPPRLPRPRPRPVRPPRP | 0.924
77 | RRIRYRPPRLPRPRPRPVSFPRP | -0.717
78 | RRIRYRPPRLPRPRPRPVSPPRP | -0.449
79 | RRIRYRPPRLPRPRPRPVTHPRP | 0.00542
80 | RRIRYRPPRLPRPRPRPVVMPRP | 0.00213
81 | RRIRYRPPRLPRPRPRPVWIPRP | -1.23
82 | RRIRYRPPRLPRPRPRPWCPPRP | -0.28
83 | RRIRYRPPRLPRPRPRPWFRPRP | -0.567
84 | RRIRYRPPRLPRPRPRPWGCPRP | -0.404
85 | RRIRYRPPRLPRPRPRPWGRPRP | -0.186
86 | RRIRYRPPRLPRPRPRPWIEPRP | -0.866
87 | RRIRYRPPRLPRPRPRPWILPRP | -0.482
88 | RRIRYRPPRLPRPRPRPWKQPRP | -0.0389
89 | RRIRYRPPRLPRPRPRPWNRPRP | -0.0135
90 | RRIRYRPPRLPRPRPRPWPWPRP | 0.0314
91 | RRIRYRPPRLPRPRPRPWQLPRP | -0.647
92 | RRIRYRPPRLPRPRPRPWSCPRP | -0.171
93 | RRIRYRPPRLPRPRPRPWSEPRP | -0.117
94 | RRIRYRPPRLPRPRPRPWTDPRP | -0.038
95 | RRIRYRPPRLPRPRPRPWVGPRP | -0.352
96 | RRIRYRPPRLPRPRPRPWVHPRP | -0.701
97 | RRIRYRPPRLPRPRPRPWVVPRP | -0.264
98 | RRIRYRPPRLPRPRPRPWWRPRP | -0.0462
99 | RRIRYRPPRLPRPRPRPWYKPRP | -0.0225
100 | RRIRYRPPRLPRPRPRPWYQPRP | -3.18

Row | Sequence | shrunken log2 fold change
101 | RRIRYRPPRLPRPRPRPYAIPRP | -0.00088
102 | RRIRYRPPRLPRPRPRPYATPRP | -0.175
103 | RRIRYRPPRLPRPRPRPYEMPRP | -0.104
104 | RRIRYRPPRLPRPRPRPYENPRP | 0.0075
105 | RRIRYRPPRLPRPRPRPYEYPRP | -0.095
106 | RRIRYRPPRLPRPRPRPYFGPRP | 0.0143
107 | RRIRYRPPRLPRPRPRPYFLPRP | -1.23
108 | RRIRYRPPRLPRPRPRPYGKPRP | -1.27
109 | RRIRYRPPRLPRPRPRPYIDPRP | -0.103
110 | RRIRYRPPRLPRPRPRPYIHPRP | -1.31
111 | RRIRYRPPRLPRPRPRPYINPRP | -1.69
112 | RRIRYRPPRLPRPRPRPYKCPRP | -0.175
113 | RRIRYRPPRLPRPRPRPYKRPRP | -2.31
114 | RRIRYRPPRLPRPRPRPYKSPRP | 0.0233
115 | RRIRYRPPRLPRPRPRPYNLPRP | 0.00739
116 | RRIRYRPPRLPRPRPRPYPGPRP | -0.379
117 | RRIRYRPPRLPRPRPRPYPLPRP | -0.146
118 | RRIRYRPPRLPRPRPRPYPTPRP | -0.282
119 | RRIRYRPPRLPRPRPRPYRFPRP | -0.168
120 | RRIRYRPPRLPRPRPRPYRRPRP | -0.00141
121 | RRIRYRPPRLPRPRPRPYRWPRP | -0.175
122 | RRIRYRPPRLPRPRPRPYWVPRP | -0.538
123 | RRIRYRPPRLPRPRPRPYYDPRP | -0.15
